According to patent US20040191887A1 (WISCONSIN ALUMNI RESEARCH FOUNDATION, published 2004):

T1: botulinum neurotoxin E (Clostridium botulinum, UniProt Q00496 2-1251)
T1 sequence: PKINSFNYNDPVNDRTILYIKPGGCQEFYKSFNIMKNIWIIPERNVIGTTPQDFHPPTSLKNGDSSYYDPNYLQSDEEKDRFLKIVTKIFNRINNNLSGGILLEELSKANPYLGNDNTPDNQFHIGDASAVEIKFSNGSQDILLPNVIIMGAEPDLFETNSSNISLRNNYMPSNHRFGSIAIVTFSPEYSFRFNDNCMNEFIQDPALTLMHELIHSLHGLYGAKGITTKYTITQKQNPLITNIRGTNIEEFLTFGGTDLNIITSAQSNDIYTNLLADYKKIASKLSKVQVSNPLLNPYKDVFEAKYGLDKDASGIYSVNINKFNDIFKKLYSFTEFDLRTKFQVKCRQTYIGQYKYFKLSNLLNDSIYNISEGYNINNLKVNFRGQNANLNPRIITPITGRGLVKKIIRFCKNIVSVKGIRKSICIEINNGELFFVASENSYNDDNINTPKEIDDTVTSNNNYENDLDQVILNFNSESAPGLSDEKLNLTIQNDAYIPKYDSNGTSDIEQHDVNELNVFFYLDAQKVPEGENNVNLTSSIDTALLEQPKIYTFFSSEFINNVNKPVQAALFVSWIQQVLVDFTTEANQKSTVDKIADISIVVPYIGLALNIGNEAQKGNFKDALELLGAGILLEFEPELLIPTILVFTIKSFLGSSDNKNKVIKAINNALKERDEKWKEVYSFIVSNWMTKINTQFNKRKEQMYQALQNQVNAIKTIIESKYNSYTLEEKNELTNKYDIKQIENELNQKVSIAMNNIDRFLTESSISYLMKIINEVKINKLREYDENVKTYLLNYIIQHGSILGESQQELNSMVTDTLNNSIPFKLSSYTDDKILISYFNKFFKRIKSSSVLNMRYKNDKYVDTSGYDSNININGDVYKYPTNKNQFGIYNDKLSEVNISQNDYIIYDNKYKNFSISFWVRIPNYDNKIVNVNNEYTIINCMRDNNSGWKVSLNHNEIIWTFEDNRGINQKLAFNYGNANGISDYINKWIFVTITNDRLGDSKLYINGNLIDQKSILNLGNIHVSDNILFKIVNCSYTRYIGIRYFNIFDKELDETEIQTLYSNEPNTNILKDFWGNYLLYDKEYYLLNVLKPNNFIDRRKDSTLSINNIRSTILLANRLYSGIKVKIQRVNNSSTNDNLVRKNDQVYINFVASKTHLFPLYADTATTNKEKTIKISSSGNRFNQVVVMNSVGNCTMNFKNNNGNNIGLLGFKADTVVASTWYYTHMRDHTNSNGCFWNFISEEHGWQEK


Legend:
[1] = target: T1, botulinum neurotoxin E; assay: GST pull-down with and without gangliosides, immunoblot
[2] = target: botulinum neurotoxin A (Clostridium botulinum, UniProt P0DPI0 2-1296); assay: as above
botulinum neurotoxin A, sequence (P0DPI0 2-1296 limits assumed): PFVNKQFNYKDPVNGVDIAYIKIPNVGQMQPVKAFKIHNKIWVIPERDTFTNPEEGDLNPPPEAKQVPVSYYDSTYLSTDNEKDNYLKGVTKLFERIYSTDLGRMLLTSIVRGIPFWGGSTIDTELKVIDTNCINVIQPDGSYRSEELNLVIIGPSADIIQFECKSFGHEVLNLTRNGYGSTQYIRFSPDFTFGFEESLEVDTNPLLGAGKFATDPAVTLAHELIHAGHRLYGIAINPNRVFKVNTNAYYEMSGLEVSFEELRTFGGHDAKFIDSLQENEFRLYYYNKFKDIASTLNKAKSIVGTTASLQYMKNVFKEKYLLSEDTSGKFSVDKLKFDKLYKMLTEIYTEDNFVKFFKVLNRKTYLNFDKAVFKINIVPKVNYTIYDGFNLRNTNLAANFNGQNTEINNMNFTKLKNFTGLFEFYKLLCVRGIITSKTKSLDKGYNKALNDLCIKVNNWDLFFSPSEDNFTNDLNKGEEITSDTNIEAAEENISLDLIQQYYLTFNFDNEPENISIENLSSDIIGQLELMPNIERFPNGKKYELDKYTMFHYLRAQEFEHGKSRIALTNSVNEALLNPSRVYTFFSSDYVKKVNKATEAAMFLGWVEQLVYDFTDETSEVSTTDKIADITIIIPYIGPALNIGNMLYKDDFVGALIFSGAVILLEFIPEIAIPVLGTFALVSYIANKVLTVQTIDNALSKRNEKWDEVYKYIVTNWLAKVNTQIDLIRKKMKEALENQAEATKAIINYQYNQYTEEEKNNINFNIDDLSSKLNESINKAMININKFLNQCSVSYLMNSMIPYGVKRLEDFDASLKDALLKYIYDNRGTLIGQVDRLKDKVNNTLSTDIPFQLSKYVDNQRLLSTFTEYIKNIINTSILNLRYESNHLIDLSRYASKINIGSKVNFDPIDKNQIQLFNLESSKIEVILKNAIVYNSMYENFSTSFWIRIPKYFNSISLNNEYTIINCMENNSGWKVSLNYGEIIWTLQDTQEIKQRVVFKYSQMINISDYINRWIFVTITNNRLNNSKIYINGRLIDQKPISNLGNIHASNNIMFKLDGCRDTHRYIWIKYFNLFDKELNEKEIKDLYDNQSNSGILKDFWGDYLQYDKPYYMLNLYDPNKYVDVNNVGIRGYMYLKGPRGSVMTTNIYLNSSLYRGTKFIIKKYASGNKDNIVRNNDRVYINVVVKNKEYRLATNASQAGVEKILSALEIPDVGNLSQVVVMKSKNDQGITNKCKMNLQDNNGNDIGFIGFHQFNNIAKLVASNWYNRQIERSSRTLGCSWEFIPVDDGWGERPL

| Binder | binding result [1] | binding result [2] |
| --- | --- | --- |
| GST fusion of mouse synaptotagmin II lacking the C2B domain (residues 1-267) (receptor) MRNIFKRNQEPNVAPATTTATMPLAPVAPADNSTESTGPGESQEDMFAKLKEKFFNEINKIPLPPWALIAMAVVAGLLLLTCCFCICKKCCCKKKKNKKEKGKGMKNAMNMKDMKGGQDDDDAETGLTEGEGEGEEEKEPENLGKLQFSLDYDFQANQLTVGVLQAAELPALDMGGTSDPYVKVFLLPDKKKKYETKVHRKTLNPAFNETFTFKVPYQELAGKTLVMAIYDFDRFSKHDIIGEVKVPMNTVDLGQPIEEWRDLQGGE | no binding (tested: 30 nM; also 300 nM (data not shown)) | no binding (tested: 30 nM; also 300 nM (data not shown)) |
| GST fusion of rat synaptotagmin I lacking the C2B domain (receptor) MVSASHPEALAAPVTTVATLVPHNATEPASPGEGKEDAFSKLKQKFMNELHKIPLPPWALIAIAIVAVLLVVTCCFCVCKKCLFKKKNKKKGKEKGGKNAINMKDVKDLGKTMKDQALKDDDAETGLTDGEEKEEPKEEEKLGKLQYSLDYDFQNNQLLVGIIQAAELPALDMGGTSDPYVKVFLLPEKKKKFETKVHRKTLNPVFNEQFTFKVPYSELGGKTLVMAVYDFDRFSKHDIIGEFKVPMNTVDFGHVTEEWRDLQSA | no binding (tested: 30 nM; also 300 nM (data not shown)) | no binding (tested: 30 nM; also 300 nM (data not shown)) |
| GST fusion of rat synaptotagmin IV lacking the C2B domain (receptor) MAPITTSRVEFDEIPTVVGIFSAFGLVFTVSLFAWICCQRRSAKSNKTPPYKFVHVLKGVDIYPENLSSKKKFGGDDKSEAKRKAALPNLSLHLDLEKRDLNGNFPKTNPKAGSSSDLENVTPKLFPETEKEAVSPESLKSSTSLTSEEKQEKLGTLFLSLEYNFEKKAFVVNIKEAQGLPAMDEQSMTSDPYIKMTILPEKKHKVKTRVLRKTLDPVFDETFTFYGVPYPHIQELSLHFTVLSFDRFSRDDVIGEVLVPLSGIELSDGKMLMTREIIKR | no binding (tested: 30 nM; also 300 nM (data not shown)) | no binding (tested: 30 nM; also 300 nM (data not shown)) |
